Results on 6 molecules are retold here after article PMC10397247.

Experiment in all cases: two-hybrid library CCNG1;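 also: natural log of median RNA to DNA barcode read ratio; higher means stronger binding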
In one assay the target is T1, 4H741-bA.
T1 chain: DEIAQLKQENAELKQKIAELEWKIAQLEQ

The next assay concerns the target T2, 4H2915-bA.
T2 chain: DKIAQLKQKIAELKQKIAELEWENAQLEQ

For a further assay, the target named is T3, 4H2717-bA.
T3 chain: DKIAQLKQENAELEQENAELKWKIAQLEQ

For the next assay, the target named is T4, 4H2692-bA.
T4 chain: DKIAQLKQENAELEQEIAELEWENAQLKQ

A further assay concerns the target T5, 4H492-bA.
T5 chain: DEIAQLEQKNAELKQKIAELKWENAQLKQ

In a further assay the target is T6, 4H319-bA.
T6 chain: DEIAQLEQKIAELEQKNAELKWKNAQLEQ

The next assay concerns the target T7, 4H2588-bA.
T7 chain: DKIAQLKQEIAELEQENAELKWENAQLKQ

The target in another assay is T8, 4H40-bA.
T8 chain: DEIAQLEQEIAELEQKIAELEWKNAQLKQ

The target in the next assay is T9, 4H2839-bA.
T9 chain: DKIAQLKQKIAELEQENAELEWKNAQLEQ

The target of another assay is T10, 4H3057-bA.
T10 chain: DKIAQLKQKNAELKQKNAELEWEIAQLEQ

Another assay addresses T11, 4H348-bA.
T11 chain: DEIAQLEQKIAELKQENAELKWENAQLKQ

A further assay deals with T12, 4H3277-bA.
T12 chain: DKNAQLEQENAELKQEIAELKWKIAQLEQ

For another assay, the target named is T13, 4H477-bA.
T13 chain: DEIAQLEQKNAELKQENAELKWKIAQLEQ

The next assay deals with T14, 4H683-bH.
T14 chain: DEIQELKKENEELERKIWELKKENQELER

The target of a further assay is T15, 4H3112-bH.
T15 chain: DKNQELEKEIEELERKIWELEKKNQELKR

A further assay deals with T16, 4H457-bH.
T16 chain: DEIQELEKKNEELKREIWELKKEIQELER

A further assay deals with T17, 4H3926-bH.
T17 chain: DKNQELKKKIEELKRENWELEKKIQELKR

Another assay has as its target T18, 4H3010-bH.
T18 chain: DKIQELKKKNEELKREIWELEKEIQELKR

The target in the next assay is T19, 4H346-bH.
T19 chain: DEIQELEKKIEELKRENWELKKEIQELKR

A further assay concerns the target T20, 4H4073-bH.
T20 chain: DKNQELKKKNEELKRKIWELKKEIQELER

For a further assay, the target named is T21, 4H3427-bH.
T21 chain: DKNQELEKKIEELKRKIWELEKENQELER

The target of the next assay is T22, 4H780-bH.
T22 chain: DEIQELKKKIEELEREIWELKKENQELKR

For the next assay, the target named is T23, 4H575-bH.
T23 chain: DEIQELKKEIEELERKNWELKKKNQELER

The target of another assay is T24, 4H2702-bH.
T24 chain: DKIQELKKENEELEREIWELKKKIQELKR

For the next assay, the target named is T25, 4H855-bH.
T25 chain: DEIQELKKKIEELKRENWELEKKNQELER

The next assay concerns the target T26, 4H56-bA.
T26 chain: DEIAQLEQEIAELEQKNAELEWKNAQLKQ

In the next assay the target is T27, 4H754-bH.
T27 chain: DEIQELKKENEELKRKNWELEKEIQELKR

The target of the next assay is T28, 4H953-bH.
T28 chain: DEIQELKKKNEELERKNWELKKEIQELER

A further assay deals with T29, 4H918-bH.
T29 chain: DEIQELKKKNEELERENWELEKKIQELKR

The target in another assay is T30, 4H2673-bH.
T30 chain: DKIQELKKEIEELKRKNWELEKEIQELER

Another assay deals with T31, 4H968-bH.
T31 chain: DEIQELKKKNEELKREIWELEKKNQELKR

The target in another assay is T32, 4H797-bH.
T32 chain: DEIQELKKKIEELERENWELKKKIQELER

The next assay addresses T33, 4H3189-bN.
T33 chain: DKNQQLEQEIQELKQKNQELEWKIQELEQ

The next assay deals with T34, 4H331-bN.
T34 chain: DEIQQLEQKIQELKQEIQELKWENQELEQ

Another assay deals with T35, 4H797-bN.
T35 chain: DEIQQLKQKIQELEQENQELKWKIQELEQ

The target of a further assay is T36, 4H568-bN.
T36 chain: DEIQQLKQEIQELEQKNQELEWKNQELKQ

For another assay, the target named is T37, 4H967-bN.
T37 chain: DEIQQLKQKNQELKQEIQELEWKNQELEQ

In another assay the target is T38, 4H3843-bN.
T38 chain: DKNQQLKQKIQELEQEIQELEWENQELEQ

The next assay concerns the target T39, 4H462-bN.
T39 chain: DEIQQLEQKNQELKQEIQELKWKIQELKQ

In a further assay the target is T40, 4H370-bN.
T40 chain: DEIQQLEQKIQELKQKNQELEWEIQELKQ

The target of a further assay is T41, 4H4001-bN.
T41 chain: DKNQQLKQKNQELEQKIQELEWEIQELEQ

A further assay concerns the target T42, 4H687-bN.
T42 chain: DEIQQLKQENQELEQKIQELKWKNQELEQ

The next assay addresses T43, 4H3606-bN.
T43 chain: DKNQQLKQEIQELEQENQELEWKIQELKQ

For the next assay, the target named is T44, 4H607-bN.
T44 chain: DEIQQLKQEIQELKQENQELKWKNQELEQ

The target of the next assay is T45, 4H918-bN.
T45 chain: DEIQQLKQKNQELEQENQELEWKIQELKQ

The target in another assay is T46, 4H883-bN.
T46 chain: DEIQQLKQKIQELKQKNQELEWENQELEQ

The next assay deals with T47, P5bHq.
T47 chain: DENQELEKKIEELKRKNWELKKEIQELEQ

The next assay has as its target T48, 4H3782-bN.
T48 chain: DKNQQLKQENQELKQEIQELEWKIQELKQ

In the next assay the target is T49, 4H72-bN.
T49 chain: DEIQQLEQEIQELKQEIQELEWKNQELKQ

A further assay addresses T50, 4H953-bN.
T50 chain: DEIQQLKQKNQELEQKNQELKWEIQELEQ

A further assay addresses T51, P7A.
T51 chain: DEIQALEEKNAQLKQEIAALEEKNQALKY

A further assay deals with T52, P6A.
T52 chain: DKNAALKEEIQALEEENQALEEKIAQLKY

The next assay has as its target T53, P9A.
T53 chain: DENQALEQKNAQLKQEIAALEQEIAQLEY

The target in another assay is T54, P8A.
T54 chain: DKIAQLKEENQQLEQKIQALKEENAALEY

The target of a further assay is T55, 4H3926-bA.
T55 chain: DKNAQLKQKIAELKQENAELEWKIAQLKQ

The next assay addresses T56, 4H3175-bA.
T56 chain: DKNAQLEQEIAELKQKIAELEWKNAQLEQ

The target in another assay is T57, 4H3613-bA.
T57 chain: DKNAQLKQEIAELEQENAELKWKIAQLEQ

The next assay addresses T58, 4H3462-bA.
T58 chain: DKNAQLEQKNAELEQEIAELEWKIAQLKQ

The target in a further assay is T59, 4H3497-bA.
T59 chain: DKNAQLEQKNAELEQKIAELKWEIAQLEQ

The target in another assay is T60, 4H3628-bA.
T60 chain: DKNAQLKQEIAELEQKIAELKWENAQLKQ

The target in another assay is T61, 4H3298-bA.
T61 chain: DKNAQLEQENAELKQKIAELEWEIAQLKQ

The next assay addresses T62, 4H906-bA.
T62 chain: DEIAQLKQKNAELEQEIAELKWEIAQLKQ

The next assay concerns the target T63, 4H591-bA.
T63 chain: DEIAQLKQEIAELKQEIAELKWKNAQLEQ

The target of a further assay is T64, 4H626-bA.
T64 chain: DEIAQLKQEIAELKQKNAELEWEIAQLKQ

The target of another assay is T65, 4H3961-bN.
T65 chain: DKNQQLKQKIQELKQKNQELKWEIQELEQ
The conditions noted are these: mean of both orientations.

A further assay deals with T66, 4H470-bN.
T66 chain: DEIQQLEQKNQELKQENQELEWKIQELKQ

B1: 4H2588-bA (peptide)
chain: DKIAQLKQEIAELEQENAELKWENAQLKQ
With B1, the interaction score in the assay with 4H741-bA was -0.854; with 4H2915-bA, 0.571; with 4H2717-bA, 0.0896; with 4H2692-bA it was -0.738; in the assay with 4H492-bA it was 0.34; in the assay with 4H319-bA, 0.789. The interaction score was 1.71 with 4H2588-bA; -1.21 with 4H40-bA; 0.846 with 4H2839-bA; -0.114 with 4H3057-bA; 1.27 with 4H348-bA; -0.938 in the assay with 4H3277-bA. Moreover, the interaction score in the assay with 4H477-bA was -1.19.

B2: 4H2673-bH (peptide)
chain: DKIQELKKEIEELKRKNWELEKEIQELER
Take B2: the interaction score with 4H683-bH is 0.639; with 4H3112-bH, -0.64; with 4H457-bH, -0.154; with 4H3926-bH, 0.192; with 4H3010-bH, 2.11; with 4H346-bH, -0.803. Also, the interaction score is 0.575 in the assay with 4H4073-bH; -0.449 with 4H3427-bH; -0.56 in the assay with 4H780-bH; -0.762 in the assay with 4H575-bH; -0.671 with 4H2702-bH; -0.854 with 4H855-bH. Also, the interaction score in the assay with 4H56-bA is 0.863; in the assay with 4H754-bH it was -1.99; with 4H953-bH it was -1.62; in the assay with 4H918-bH it was -0.87; with 4H2673-bH it was -0.111; with 4H968-bH, -0.933. Further, the interaction score with 4H797-bH is -0.55.

B3: 4H3189-bN (peptide)
chain: DKNQQLEQEIQELKQKNQELEWKIQELEQ
As to B3, the interaction score with 4H3189-bN is -1.1; in the assay with 4H331-bN, -1.93; in the assay with 4H797-bN it was -0.933; with 4H568-bN it was -0.877; in the assay with 4H967-bN, -1.41; with 4H3843-bN, -1.81. The interaction score is -0.731 in the assay with 4H462-bN; -1.02 in the assay with 4H370-bN; -1.58 in the assay with 4H4001-bN; -0.938 with 4H687-bN; -0.893 with 4H3606-bN; -2.38 with 4H607-bN. Besides, the interaction score with 4H918-bN is -0.805; in the assay with 4H883-bN, -1.35; with P5bHq, -2.13; in the assay with 4H3782-bN it was -1.38; in the assay with 4H72-bN, -0.483; with 4H953-bN, -1.88.

B4: P6A (peptide)
chain: DKNAALKEEIQALEEENQALEEKIAQLKY
B4: the interaction score with P7A was -0.197; with P6A, -0.792; in the assay with P9A, -0.171; with P8A, -0.152.

B5: 4H3175-bA (peptide)
chain: DKNAQLEQEIAELKQKIAELEWKNAQLEQ
As for B5, the interaction score with 4H3926-bA is -0.662; with 4H3175-bA it was 0.672; in the assay with 4H3613-bA, -0.277; with 4H4001-bN, -0.893; with 4H3462-bA it was -0.259; with 4H3497-bA, 0. Besides, the interaction score with 4H3628-bA is -0.531; with 4H3298-bA it was -0.491; with 4H3277-bA it was -0.717; with 4H906-bA, -1.09; with 4H591-bA, -1.55; with 4H626-bA, -2.

B6: 4H3961-bN (peptide)
chain: DKNQQLKQKIQELKQKNQELKWEIQELEQ
In the case of B6, the interaction score was -0.763 with 4H4001-bN, -1.14 with 4H3961-bN and -1.5 with 4H470-bN.
